Each block holds one molecule with its values, some of them ahead of it. No end group written: not given here.
Legend:
[1] = system: scFv-P2Y6; assay: Activation of scFv-P2Y6 in HEK293 cells, aequorin luminescence; type: cell-based, human; details: non-anchored agonists
Excerpt: A fusion protein was constructed between a single chain antibody against fluorescein (Boder et al. (2000) Proc. Natl. Acad. Sci. USA 97:10701-5) (docking domain) and the human P2Y6 receptor (GenBank accession number: NP_004145) (active domain). The target fusion protein, termed scFv-P2Y6, was co-transfected with the calcium-sensitive luminescent protein aequorin into HEK293 cells. After two days, the transfected cells were pre-loaded for two hours with the aequorin substrate coelenterazine (Molecular Probes) and then various amounts of UDP, UTP or ATP were added immediately followed by measurement of luminescence (FIG. 5A). The activation profile of these three agonists on the fusion protein closely mimicked their activation of the unfused P2Y6 receptor (not shown). […] In contrast to ATP alone, an anchored compound, a fluorescein-ATP conjugate (FITC-ATP; Perkin-Elmer), was able to activate the scFv-P2Y6 receptor at low concentrations (FIG. 5B) with a half-maximal stimulation occurring at about 10 nM.

[2] = system: melanocortin receptors; details: cited from earlier work
[3] = molecular target: T1, FcR-MC4R (Homo sapiens, UniProt P12314+P32245); assay: Inhibition by AGRP of FcR-MC4R activation, CRE-luciferase reporter; type: cell-based
T1 construct: extracellular domain (residues 1-292, with its own signal peptide) of human Fc-gammaR1 = CD64 (NM_000566); expressed in transfected cells; host or cells: HEK293
T1 sequence (P12314+P32245 fused): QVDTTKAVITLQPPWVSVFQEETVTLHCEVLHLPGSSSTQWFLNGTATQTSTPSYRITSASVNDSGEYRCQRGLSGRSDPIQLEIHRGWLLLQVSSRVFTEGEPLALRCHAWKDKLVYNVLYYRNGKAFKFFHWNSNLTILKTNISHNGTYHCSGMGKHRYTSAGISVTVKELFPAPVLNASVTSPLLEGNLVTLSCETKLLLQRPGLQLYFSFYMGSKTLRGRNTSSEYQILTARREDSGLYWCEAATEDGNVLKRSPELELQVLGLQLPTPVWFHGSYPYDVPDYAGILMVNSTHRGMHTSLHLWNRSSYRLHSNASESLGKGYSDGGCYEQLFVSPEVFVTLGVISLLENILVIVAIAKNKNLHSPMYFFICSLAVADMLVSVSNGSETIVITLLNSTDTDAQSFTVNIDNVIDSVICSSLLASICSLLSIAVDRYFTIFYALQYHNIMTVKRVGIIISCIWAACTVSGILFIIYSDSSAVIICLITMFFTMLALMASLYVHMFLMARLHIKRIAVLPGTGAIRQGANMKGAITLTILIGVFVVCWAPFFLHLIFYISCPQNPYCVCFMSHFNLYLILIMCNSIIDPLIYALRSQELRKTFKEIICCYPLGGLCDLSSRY
Protocol: Activation of FcR-MC4R was assayed 6 hours after compound addition using a co-transfected CRE-luciferase construct (pCRE-Luc; Stratagene) and measuring luminescence after lysis and addition of the luciferase substrate (Tropix Luciferase Assay Kit).

[4] = molecular target: FcR-MC4R fusion protein (human); assay: cell-based or functional assay
Chain of FcR-MC4R fusion protein (human) (P12314 other isoform, or with tags, fused parts or gaps, form in doubt): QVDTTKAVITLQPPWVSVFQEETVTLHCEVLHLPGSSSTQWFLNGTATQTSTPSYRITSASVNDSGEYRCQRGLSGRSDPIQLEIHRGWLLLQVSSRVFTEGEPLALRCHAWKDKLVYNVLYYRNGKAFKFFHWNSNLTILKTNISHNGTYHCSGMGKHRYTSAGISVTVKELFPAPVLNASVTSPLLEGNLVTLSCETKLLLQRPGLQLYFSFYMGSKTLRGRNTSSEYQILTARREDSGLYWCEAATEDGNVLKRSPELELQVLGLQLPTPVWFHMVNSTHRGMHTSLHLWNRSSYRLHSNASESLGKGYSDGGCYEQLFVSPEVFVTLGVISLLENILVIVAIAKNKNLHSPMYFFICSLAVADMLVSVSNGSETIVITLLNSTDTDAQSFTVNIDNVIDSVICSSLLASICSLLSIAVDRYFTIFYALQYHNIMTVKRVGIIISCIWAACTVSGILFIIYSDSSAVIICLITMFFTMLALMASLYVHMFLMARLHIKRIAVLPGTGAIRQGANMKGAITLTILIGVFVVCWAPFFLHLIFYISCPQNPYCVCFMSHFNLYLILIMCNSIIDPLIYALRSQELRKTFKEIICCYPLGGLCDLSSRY

[5] = system: Alpha1-mc4r, Alpha2-MC4R, OGH-MC4R and HCG-MC4R; assay: Glycoprotein hormone subunit-based extracellular 2-hybrid screen, CRE-luciferase reporter in HEK293 cells; type: cell-based; details: relative to no ligand control; two days after transfection
Chain of Alpha1-mc4r, Alpha2-MC4R, OGH-MC4R and HCG-MC4R (P32245 whole entry): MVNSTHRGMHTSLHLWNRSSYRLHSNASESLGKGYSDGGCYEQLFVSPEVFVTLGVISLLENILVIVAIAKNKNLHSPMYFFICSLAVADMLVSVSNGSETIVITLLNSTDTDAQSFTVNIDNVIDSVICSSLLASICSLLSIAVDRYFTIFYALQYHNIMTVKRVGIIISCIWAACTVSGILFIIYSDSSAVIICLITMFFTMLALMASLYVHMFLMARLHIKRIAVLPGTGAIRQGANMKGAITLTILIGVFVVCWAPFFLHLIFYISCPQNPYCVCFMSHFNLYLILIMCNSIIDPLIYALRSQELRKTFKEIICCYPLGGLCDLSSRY
Protocol: Signal sequences were included at the beginning of each construct.
Two days after transfection, the activity of the target fusion protein was measured by assaying luciferase activity as relative light units (Y axis, FIG. 7) on a luminometer.

[6] = molecular target: FcR-MC4R fusion protein (human); assay: cell-based or functional assay; remark: listed apart in the source

Molecule: Nc1ncnc2c1ncn2[C@@H]1O[C@H](COP(=O)(O)OP(=O)(O)OP(=O)(O)O)[C@@H](O)[C@H]1O [ATP]
activation of scFv-P2Y6 (relative potency in words) [1]: required much higher concentrations

Molecule: O=c1ccn([C@@H]2O[C@H](COP(=O)(O)OP(=O)(O)O)[C@@H](O)[C@H]2O)c(=O)[nH]1 [UDP]
activation of scFv-P2Y6 (relative potency in words) [1]: most potent activator

Molecule: O=c1ccn([C@@H]2O[C@H](COP(=O)(O)OP(=O)(O)OP(=O)(O)O)[C@@H](O)[C@H]2O)c(=O)[nH]1 [UTP]
activation of scFv-P2Y6 (relative potency in words) [1]: required much higher concentrations

Molecule: His Phe Arg Trp [HFRW]
activation of melanocortin receptors [2]: fully activate melanocortin receptors, but only at very high concentrations

Molecule: agouti-related protein (SSRRCVRLHESCLGQQVPCCDPCATCYCRFFNAFCYCRKLGTAMNPCSRT; UniProt O00253 83-132, looked up) [AGRP, known antagonist of the MC4 receptor]
effect of increasing amounts of inhibitor on stimulation by HFRW-Fc ([3]; FcR-MC4R activated with anchored agonist HFRW-Fc): dramatically reduce the maximal stimulation levels | effect of increasing amounts of inhibitor on α-MSH dose response ([3]; FcR-MC4R activated with natural agonist α-MSH): shift the dose response curve of α-MSH progressively to the right

amount of compound for half-maximal stimulation of MC4R (CRE-luciferase) [4]: 100 fold less
Molecule: α-MSH-Fc (from UniProt P01189 138-150) (Fc fusion)

B1: alpha2: glycoprotein hormone subunit alpha2 as anchor component fused to HFRW via a 13 amino acid spacer (protein)
chain: QEAVIPGCHLHPFNVTVRSDRQGTCQGSHVAQACVGHCESSAFPSRYSVLVASGYRHNITSVSQCCTISGLKKVKVQLQCVGSRREELEIFTARACQCDMCRLSRY
binding between anchor and docking glycoprotein hormone subunits, seen as increased MC4R activity [5]: binds to OGH, hCG, and itself

half maximal level of the response (activation of MC4R, CRE-luciferase reporter, transiently transfected HEK293 cells) [6]: < 1 nM
Molecule: HFRW-Fc (Fc fusion, part only; not given: Fc and linker, not shown: a dimerising Fc or GST, also: Fc junction, isotype and linker not given here) [HFRW-Fc]

Reference: patent US20040086946A1, “Methods of isolation of active compounds and activated targets” (priority 2002, published 2004)
